Source: publication PMC4835091

B1: FtsZ (purified, WT) [E. coli] / ZapD (purified) [E. coli] (parent)
chain 1: MQTQVLFEHPLNEKMRTWLRIEFLIQQLTVNLPIVDHAGALHFFRNVSELLDVFERGEVRTELLKELDRQQRKLQTWIGVPGVDQSRIEALIQQLKAAGSVLISAPRIGQFLREDRLIALVRQRLSIPGGCCSFDLPTLHIWLHLPQAQRDSQVETWIASLNPLTQALTMVLDLIRQSAPFRKQTSLNGFYQDNGGDADLLRLNLSLDSQLYPQISGHKSRFAIRFMPLDTENGQVPERLDFELACC
chain 2: MFEPMELTNDAVIKVIGVGGGGGNAVEHMVRERIEGVEFFAVNTDAQALRKTAVGQTIQIGSGITKGLGAGANPEVGRNAADEDRDALRAALEGADMVFIAAGMGGGTGTGAAPVVAEVAKDLGILTVAVVTKPFNFEGKKRMAFAEQGITELSKHVDSLITIPNDKLLKVLGRGISLLDAFGAANDVLKGAVQGIAELITRPGLMNVDFADVRTVMSEMGYAMMGSGVASGEDRAEEAAEMAISSPLLEDIDLSGARGVLVNITAGFDLRLDEFETVGNTIRAFASDNATVVIGTSLDPDMNDELRVTVVATGIGMDKRPEITLVTNKQVQQPVMDRYQQHGMAPLTQEQKPVAKVVNDNAPQTAKEPDYLDIPAFLRKQAD
B2: FtsZ (purified, WT) [E. coli] / itself (parent)
chain: B1 chain 2

Legend:
[1] = variants of: B1; test: co-sedimentation assay, SDS-PAGE quantification; settings: with ZapD (purified) [E. coli], 50 mM K-MOPS pH 6.5, 50 mM KCl, 2.5 mM MgCl2, 1 mM GTP, 3 µM BSA, read off a plot
itself = variants of: B2; test: sedimentation (co-pelleting) assay, SDS-PAGE quantification; settings: with itself, 50 mM K-MOPS pH 6.5, 50 mM KCl, 2.5 mM MgCl2, 1 mM GTP, 3 µM BSA, read off a plot

Variant | response (% ZapD in pellet) ([1]; 5 µM FtsZ with ZapD at 1:0.2) | response (% ZapD in pellet) ([1]; 5 µM FtsZ with ZapD at 1:1) | response (% FtsZ in pellet) (itself; 5 µM FtsZ with ZapD at 1:0.2) | response (% FtsZ in pellet) (itself; 5 µM FtsZ with ZapD at 1:1) | response (% FtsZ in pellet) (itself; 5 µM FtsZ, no ZapD)
chain 2 MFEPMELTNDAVIKVIGVGGGGGNAVEHMVRERIEGVEFFAVNTDAQALRKTAVGQTIQIGSGITKGLGAGANPEVGRNAADEDRDALRAALEGADMVFIAAGMGGGTGTGAAPVVAEVAKDLGILTVAVVTKPFNFEGKKRMAFAEQGITELSKHVDSLITIPNDKLLKVLGRGISLLDAFGAANDVLKGAVQGIAELITRPGLMNVDFADVRTVMSEMGYAMMGSGVASGEDRAEEAAEMAISSPLLEDIDLSGARGVLVNITAGFDLRLDEFETVGNTIRAFASDNATVVIGTSLDPDMNDELRVTVVATGIGMDKRPEITLVTNKQVQQPVMDRYQQHGMAPLTQEQKPVAKVVNDNAPQTAKEPDYLDIPAFLRKQAK [chain 2 D383K] | 71 | 60 | – | – | –
chain 2 MFEPMELTNDAVIKVIGVGGGGGNAVEHMVRERIEGVEFFAVNTDAQALRKTAVGQTIQIGSGITKGLGAGANPEVGRNAADEDRDALRAALEGADMVFIAAGMGGGTGTGAAPVVAEVAKDLGILTVAVVTKPFNFEGKKRMAFAEQGITELSKHVDSLITIPNDKLLKVLGRGISLLDAFGAANDVLKGAVQGIAELITRPGLMNVDFADVRTVMSEMGYAMMGSGVASGEDRAEEAAEMAISSPLLEDIDLSGARGVLVNITAGFDLRLDEFETVGNTIRAFASDNATVVIGTSLDPDMNDELRVTVVATGIGMDKRPEITLVTNKQVQQPVMDRYQQHGMAPLTQEQKPVAKVVNDNAPQTAKEPDYLDIPAFLRDQAD [chain 2 K380D] | 14 | 10 | – | – | –
MFEPMELTNDAVIKVIGVGGGGGNAVEHMVRERIEGVEFFAVNTDAQALRKTAVGQTIQIGSGITKGLGAGANPEVGRNAADEDRDALRAALEGADMVFIAAGMGGGTGTGAAPVVAEVAKDLGILTVAVVTKPFNFEGKKRMAFAEQGITELSKHVDSLITIPNDKLLKVLGRGISLLDAFGAANDVLKGAVQGIAELITRPGLMNVDFADVRTVMSEMGYAMMGSGVASGEDRAEEAAEMAISSPLLEDIDLSGARGVLVNITAGFDLRLDEFETVGNTIRAFASDNATVVIGTSLDPDMNDELRVTVVATGIGMDKRPEITLVTNKQVQQPVMDRYQQHGMAPLTQEQKPVAKVVNDNAPQTAKEPDYLDIPAFLRQQQQ [chain 1 K380Q A382Q D383Q] | – | – | 43 | 69 | 24
MFEPMELTNDAVIKVIGVGGGGGNAVEHMVRERIEGVEFFAVNTDAQALRKTAVGQTIQIGSGITKGLGAGANPEVGRNAADEDRDALRAALEGADMVFIAAGMGGGTGTGAAPVVAEVAKDLGILTVAVVTKPFNFEGKKRMAFAEQGITELSKHVDSLITIPNDKLLKVLGRGISLLDAFGAANDVLKGAVQGIAELITRPGLMNVDFADVRTVMSEMGYAMMGSGVASGEDRAEEAAEMAISSPLLEDIDLSGARGVLVNITAGFDLRLDEFETVGNTIRAFASDNATVVIGTSLDPDMNDELRVTVVATGIGMDKRPEITLVTNKQVQQPVMDRYQQHGMAPLTQEQKPVAKVVNDNAPQTAKEPDYLDIPAFLRDQAD [chain 1 K380D] | – | – | 29 | 41 | 27
MFEPMELTNDAVIKVIGVGGGGGNAVEHMVRERIEGVEFFAVNTDAQALRKTAVGQTIQIGSGITKGLGAGANPEVGRNAADEDRDALRAALEGADMVFIAAGMGGGTGTGAAPVVAEVAKDLGILTVAVVTKPFNFEGKKRMAFAEQGITELSKHVDSLITIPNDKLLKVLGRGISLLDAFGAANDVLKGAVQGIAELITRPGLMNVDFADVRTVMSEMGYAMMGSGVASGEDRAEEAAEMAISSPLLEDIDLSGARGVLVNITAGFDLRLDEFETVGNTIRAFASDNATVVIGTSLDPDMNDELRVTVVATGIGMDKRPEITLVTNKQVQQPVMDRYQQHGMAPLTQEQKPVAKVVNDNAPQTAKEPDYLDIPAFLRKQAK [chain 1 D383K] | – | – | 45 | 66 | 27
MFEPMELTNDAVIKVIGVGGGGGNAVEHMVRERIEGVEFFAVNTDAQALRKTAVGQTIQIGSGITKGLGAGANPEVGRNAADEDRDALRAALEGADMVFIAAGMGGGTGTGAAPVVAEVAKDLGILTVAVVTKPFNFEGKKRMAFAEQGITELSKHVDSLITIPNDKLLKVLGRGISLLDAFGAANDVLKGAVQGIAELITRPGLMNVDFADVRTVMSEMGYAMMGSGVASGEDRAEEAAEMAISSPLLEDIDLSGARGVLVNITAGFDLRLDEFETVGNTIRAFASDNATVVIGTSLDPDMNDELRVTVVATGIGMDKRPEITLVTNKQVQQPVMDRYQQHGMAPLTQEQKPVAKVVNDNAPQTAKEPDYLDIPAFLRRQAR [chain 1 K380R D383R] | – | – | 39 | 50 | 23
MFEPMELTNDAVIKVIGVGGGGGNAVEHMVRERIEGVEFFAVNTDAQALRKTAVGQTIQIGSGITKGLGAGANPEVGRNAADEDRDALRAALEGADMVFIAAGMGGGTGTGAAPVVAEVAKDLGILTVAVVTKPFNFEGKKRMAFAEQGITELSKHVDSLITIPNDKLLKVLGRGISLLDAFGAANDVLKGAVQGIAELITRPGLMNVDFADVRTVMSEMGYAMMGSGVASGEDRAEEAAEMAISSPLLEDIDLSGARGVLVNITAGFDLRLDEFETVGNTIRAFASDNATVVIGTSLDPDMNDELRVTVVATGIGMDKRPEITLVTNKQVQQPVMDRYQQHGMAPLTQEQKPVAKVVNDNAPQTAKEPDYLDIPAFLRDQAK [chain 1 K380D D383K] | – | – | 43 | 64 | 23

The next lines start with the values.

response (% ZapD in pellet) ([1]; 5 µM FtsZ with ZapD at 1:0.2) | response (% ZapD in pellet) ([1]; 5 µM FtsZ with ZapD at 1:1) | response (% FtsZ in pellet) (itself; 5 µM FtsZ with ZapD at 1:0.2) | response (% FtsZ in pellet) (itself; 5 µM FtsZ with ZapD at 1:1) | response (% FtsZ in pellet) (itself; 5 µM FtsZ, no ZapD) | Variant
– | 49 | – | – | – | chain 2 MFEPMELTNDAVIKVIGVGGGGGNAVEHMVRERIEGVEFFAVNTDAQALRKTAVGQTIQIGSGITKGLGAGANPEVGRNAADEDRDALRAALEGADMVFIAAGMGGGTGTGAAPVVAEVAKDLGILTVAVVTKPFNFEGKKRMAFAEQGITELSKHVDSLITIPNDKLLKVLGRGISLLDAFGAANDVLKGAVQGIAELITRPGLMNVDFADVRTVMSEMGYAMMGSGVASGEDRAEEAAEMAISSPLLEDIDLSGARGVLVNITAGFDLRLDEFETVGNTIRAFASDNATVVIGTSLDPDMNDELRVTVVATGIGMDKRPEITLVTNKQVQQPVMDRYQQHGMAPLTQEQKPVAKVVNDNAPQTAKEPDYLDIPAFLRDQAK [chain 2 K380D D383K]
42 | 42 | – | – | – | chain 2 MFEPMELTNDAVIKVIGVGGGGGNAVEHMVRERIEGVEFFAVNTDAQALRKTAVGQTIQIGSGITKGLGAGANPEVGRNAADEDRDALRAALEGADMVFIAAGMGGGTGTGAAPVVAEVAKDLGILTVAVVTKPFNFEGKKRMAFAEQGITELSKHVDSLITIPNDKLLKVLGRGISLLDAFGAANDVLKGAVQGIAELITRPGLMNVDFADVRTVMSEMGYAMMGSGVASGEDRAEEAAEMAISSPLLEDIDLSGARGVLVNITAGFDLRLDEFETVGNTIRAFASDNATVVIGTSLDPDMNDELRVTVVATGIGMDKRPEITLVTNKQVQQPVMDRYQQHGMAPLTQEQKPVAKVVNDNAPQTAKEPDYLDIPAFLRQQQQ [chain 2 K380Q A382Q D383Q]
16 | 35 | – | – | – | chain 2 MFEPMELTNDAVIKVIGVGGGGGNAVEHMVRERIEGVEFFAVNTDAQALRKTAVGQTIQIGSGITKGLGAGANPEVGRNAADEDRDALRAALEGADMVFIAAGMGGGTGTGAAPVVAEVAKDLGILTVAVVTKPFNFEGKKRMAFAEQGITELSKHVDSLITIPNDKLLKVLGRGISLLDAFGAANDVLKGAVQGIAELITRPGLMNVDFADVRTVMSEMGYAMMGSGVASGEDRAEEAAEMAISSPLLEDIDLSGARGVLVNITAGFDLRLDEFETVGNTIRAFASDNATVVIGTSLDPDMNDELRVTVVATGIGMDKRPEITLVTNKQVQQPVMDRYQQHGMAPLTQEQKPVAKVVNDNAPQTAKEPDYLDIPAFLRRQAR [chain 2 K380R D383R]
